Experimental data published in the Human Domainome abundance scans (Beltran et al. 2025).
± gives the uncertainty stated by the source.

B1: GA-binding protein alpha chain, residues 172 to 250; numbered along this chain, Q06546 (parent)
chain: GYRKEQERLGIPYDPIQWSTDQVLHWVVWVMKEFSMTDIDLTTLNISGRELCSLNQEDFFQRVPRGEILWSHLELLRKY

Variants of: B1
Test: abundance fitness (aPCA) (normalised: wild type 0, dead -1); higher = more abundant; growth selection in yeast, the domain comes from the species named
Conditions: Homo sapiens

Row | Variant | abundance fitness
1 | GYRKEQERLGIPYDPIQWSTDQVLHWVVWVMKEFSMTDIDLTTLNISGAELCSLNQEDFFQRVPRGEILWSHLELLRKY [R49A] | 0.006 ± 0.038
2 | GYRKEQERLGIPYDPIQWSTDQVLHWVVWVMKEFSMTDIDLTTLNITGRELCSLNQEDFFQRVPRGEILWSHLELLRKY [S47T] | 0.03 ± 0.042
3 | GYRKEQERLGIPYDPIQWSTDQVLHWVVWVMKEFSMTDIDLTTLNIHGRELCSLNQEDFFQRVPRGEILWSHLELLRKY [S47H] | -0.266 ± 0.078
4 | GYRKEQERLGIPYDPIQWSTDQVLHWVVWVMKEFSMTDIDLTTLNIAGRELCSLNQEDFFQRVPRGEILWSHLELLRKY [S47A] | -0.161 ± 0.041
5 | GYRKEQERLGIPYDPIQWSTDQVLHWVVWVMKEFSMTDIDLTTLNIWGRELCSLNQEDFFQRVPRGEILWSHLELLRKY [S47W] | -0.812 ± 0.093
6 | GYRKEQERLGIPYDPIQWSTDQVLHWVVWVMKEFSMTDIDLTTLNIRGRELCSLNQEDFFQRVPRGEILWSHLELLRKY [S47R] | -0.277 ± 0.034
7 | GYRKEQERLGIPYDPIQWSTDQVLHWVVWVMKEFSMTDIDLTTLNICGRELCSLNQEDFFQRVPRGEILWSHLELLRKY [S47C] | -0.039 ± 0.073
8 | GYRKEQERLGIPYDPIQWSTDQVLHWVVWVMKEFSMTDIDLTTLNIIGRELCSLNQEDFFQRVPRGEILWSHLELLRKY [S47I] | -0.279 ± 0.25
9 | GYRKEQERLGIPYDPIQWSTDQVLHWVVWVMKEFSMTDIDLTTLNIMGRELCSLNQEDFFQRVPRGEILWSHLELLRKY [S47M] | -0.446 ± 0.086
10 | GYRKEQERLGIPYDPIQWSTDQVLHWVVWVMKEFSMTDIDLTTLNIEGRELCSLNQEDFFQRVPRGEILWSHLELLRKY [S47E] | -0.061 ± 0.058
11 | GYRKEQERLGIPYDPIQWSTDQVLHWVVWVMKEFSMTDIDLTTLNIVGRELCSLNQEDFFQRVPRGEILWSHLELLRKY [S47V] | -0.418 ± 0.047
12 | GYRKEQERLGIPYDPIQWSTDQVLHWVVWVMKEFSMTDIDLTTLNIDGRELCSLNQEDFFQRVPRGEILWSHLELLRKY [S47D] | -0.07 ± 0.099
13 | GYRKEQERLGIPYDPIQWSTDQVLHWVVWVMKEFSMTDIDLTTLNIFGRELCSLNQEDFFQRVPRGEILWSHLELLRKY [S47F] | -0.866 ± 0.16
14 | GYRKEQERLGIPYDPIQWSTDQVLHWVVWVMKEFSMTDIDLTTLNIPGRELCSLNQEDFFQRVPRGEILWSHLELLRKY [S47P] | -0.04 ± 0.038
15 | GYRKEQERLGIPYDPIQWSTDQVLHWVVWVMKEFSMTDIDLTTLNINGRELCSLNQEDFFQRVPRGEILWSHLELLRKY [S47N] | -0.041 ± 0.1
16 | GYRKEQERLGIPYDPIQWSTDQVLHWVVWVMKEFSMTDIDLTTLNIKGRELCSLNQEDFFQRVPRGEILWSHLELLRKY [S47K] | -0.137 ± 0.062
17 | GYRKEQERLGIPYDPIQWSTDQVLHWVVWVMKEFSMTDIDLTTLNIQGRELCSLNQEDFFQRVPRGEILWSHLELLRKY [S47Q] | -0.276 ± 0.065
18 | GYRKEQERLGIPYDPIQWSTDQVLHWVVWVMKEFSMTDIDLTTLNIYGRELCSLNQEDFFQRVPRGEILWSHLELLRKY [S47Y] | -0.637 ± 0.15

Row | Variant | abundance fitness
19 | GYRKEQERLGIPYDPIQWSTDQVLHWVVWVMKEFSMTDIDLTTLNIGGRELCSLNQEDFFQRVPRGEILWSHLELLRKY [S47G] | -0.14 ± 0.032
20 | GYRKEQERLGIPYDPIQWSTDQVLHWVVWVMKEFSMTDIDLTTLNISLRELCSLNQEDFFQRVPRGEILWSHLELLRKY [G48L] | -0.982 ± 0.12
21 | GYRKEQERLGIPYDPIQWSTDQVLHWVVWVMKEFSMTDIDLTTLNISNRELCSLNQEDFFQRVPRGEILWSHLELLRKY [G48N] | -0.578 ± 0.39
22 | GYRKEQERLGIPYDPIQWSTDQVLHWVVWVMKEFSMTDIDLTTLNISKRELCSLNQEDFFQRVPRGEILWSHLELLRKY [G48K] | -0.951 ± 0.39
23 | GYRKEQERLGIPYDPIQWSTDQVLHWVVWVMKEFSMTDIDLTTLNISRRELCSLNQEDFFQRVPRGEILWSHLELLRKY [G48R] | -0.944 ± 0.098
24 | GYRKEQERLGIPYDPIQWSTDQVLHWVVWVMKEFSMTDIDLTTLNISQRELCSLNQEDFFQRVPRGEILWSHLELLRKY [G48Q] | -1.02 ± 0.27
25 | GYRKEQERLGIPYDPIQWSTDQVLHWVVWVMKEFSMTDIDLTTLNISPRELCSLNQEDFFQRVPRGEILWSHLELLRKY [G48P] | -0.633 ± 0.066
26 | GYRKEQERLGIPYDPIQWSTDQVLHWVVWVMKEFSMTDIDLTTLNISARELCSLNQEDFFQRVPRGEILWSHLELLRKY [G48A] | -0.788 ± 0.073
27 | GYRKEQERLGIPYDPIQWSTDQVLHWVVWVMKEFSMTDIDLTTLNISHRELCSLNQEDFFQRVPRGEILWSHLELLRKY [G48H] | -0.305 ± 0.19
28 | GYRKEQERLGIPYDPIQWSTDQVLHWVVWVMKEFSMTDIDLTTLNISVRELCSLNQEDFFQRVPRGEILWSHLELLRKY [G48V] | -0.884 ± 0.084
29 | GYRKEQERLGIPYDPIQWSTDQVLHWVVWVMKEFSMTDIDLTTLNISTRELCSLNQEDFFQRVPRGEILWSHLELLRKY [G48T] | -0.813 ± 0.23
30 | GYRKEQERLGIPYDPIQWSTDQVLHWVVWVMKEFSMTDIDLTTLNISDRELCSLNQEDFFQRVPRGEILWSHLELLRKY [G48D] | -0.804 ± 0.14
31 | GYRKEQERLGIPYDPIQWSTDQVLHWVVWVMKEFSMTDIDLTTLNISCRELCSLNQEDFFQRVPRGEILWSHLELLRKY [G48C] | -0.919 ± 0.14
32 | GYRKEQERLGIPYDPIQWSTDQVLHWVVWVMKEFSMTDIDLTTLNISMRELCSLNQEDFFQRVPRGEILWSHLELLRKY [G48M] | -0.99 ± 0.3
33 | GYRKEQERLGIPYDPIQWSTDQVLHWVVWVMKEFSMTDIDLTTLNISFRELCSLNQEDFFQRVPRGEILWSHLELLRKY [G48F] | -0.796 ± 0.16
34 | GYRKEQERLGIPYDPIQWSTDQVLHWVVWVMKEFSMTDIDLTTLNISSRELCSLNQEDFFQRVPRGEILWSHLELLRKY [G48S] | -0.804 ± 0.082
35 | GYRKEQERLGIPYDPIQWSTDQVLHWVVWVMKEFSMTDIDLTTLNISWRELCSLNQEDFFQRVPRGEILWSHLELLRKY [G48W] | -0.84 ± 0.13
